According to patent US20250025567A1 (Astellas, published 2025):
Numbering of substitutions follows the chain as printed. Values belong to the binder of their own block, whether it stands above or below them.

Biological target: T1, human CLDN6 (Claudin 6) (human, UniProt P56747 1-220)
T1 construct: whole, on cells; Target presented on NUGC-3 cells that express CLDN6; also called hCLDN6
T1 sequence (looked up): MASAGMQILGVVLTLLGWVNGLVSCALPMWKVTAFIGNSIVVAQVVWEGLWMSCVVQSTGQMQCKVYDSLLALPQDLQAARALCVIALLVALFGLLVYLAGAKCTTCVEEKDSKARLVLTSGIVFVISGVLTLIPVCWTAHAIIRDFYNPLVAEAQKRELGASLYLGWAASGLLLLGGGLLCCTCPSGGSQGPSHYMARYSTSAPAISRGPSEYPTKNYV
Test: flow cytometry on NUGC-3 cells expressing CLDN6, antibody 1 ng/mL to 25 µg/mL, PE anti-human IgG detection, gMFI
Method: The cells of human gastric cancer cell line NUGC-3 (JCRB cell bank) expressing CLDN6 were suspended with PBS (Wako, #045-29795) containing 5% FBS so as to have a concentration of 1×10⁶ cells/mL. The suspension was seeded (added) in the wells of a 96-well V-bottom microplate at a rate of 100 μL/well. After centrifugation, the supernatant was removed. AbM: antibody comprising a heavy chain, aCLDN6-VH—CH₁—CH₂—CH₃ and a light chain, aCLDN6-VL-CL, disclosed in International Publication No. WO2022/058298. Ab0, Ab1 and Ab2 were suspended with 5% FBS-containing PBS such that the concentrations fall in the range of 1 ng/mL to 25 μg/mL (12 dilution series were prepared by serial dilution at a 2.5-fold dilution rate from 25 μg/mL to 1 ng/mL). The suspensions were added at a rate of 100 μL/well and allowed to stand still at 4° C. for one hour. […] A histogram of PE (phycoerythrin) fluorescence intensity of viable cell fractions was prepared and geometric mean fluorescence intensity (gMFI) was calculated. gMFI values were plotted to make a graph by GraphPad Prism (company: GraphPad Software). […]

binding result: binds
B1: humanized anti-CLDN6 antibody Ab1 (antibody, human IgG1, kappa, V domains shown)
VH: QVQLVESGGGVVQPGGSLRLSCKASGYSFTGYTMNWVRQAPGKGLEWVGLINPYNGGTIYNQKFKGRFTLSVDKSKSTAYLQMNSLRAEDTAVYYCARDYGFVLDYWGRGTLVTVSS
VL: DIQLTQSPSSLSASVGDRVTITCSASSSVSYLHWFQQKPGKAPKLLVYSTSNLPSGVPSRFSGSGSGTDYTLTISSLQPEDFATYYCQQRSIYPPWTFGQGTKLEIKR
notes: Humanized from mouse anti-CLDN6 antibody GT512muMAB 64A or 61D (WO 2011/057788), expressed in ExpiCHO-S cells; Tested as the naked antibody

binding result: binds
B2: humanized anti-CLDN6 antibody Ab2 (antibody, human IgG1, kappa, V domains shown)
VH: B1 VH with F102Y
VL: B1 VL
notes: Tested as the naked antibody
